According to doi:10.1101/2022.02.11.480115 (2022):

Legend:
Test in all cases: BLI
[1] = target: H7 AN13 HA trimer (A/Anhui/1/2013) (influenza A virus A/Anhui/1/2013 (H7N9))
[2] = target: H5 VN04 HA trimer (A/Vietnam/1203/2004) (influenza A virus A/Vietnam/1203/2004 …)
[3] = target: H1 CA09 stem
[4] = target: H6 HA (recombinant, Figure 4e) (influenza A virus (H6 subtype, strain …))
[5] = target: H10 JD13 HA trimer (A/Jiangxi-Donghu/346/2013, H10N8) (influenza A virus …)
[6] = target: H1 HA (recombinant, Figure 4e) (influenza A virus (H1 subtype, strain …))

B1: 789-203-3C12 Fab (Fab, V domains shown)
VH: QVQLQESGPGLVKPSEILSLTCAVSGGSFSSYCWGWIRQPPGKGLEWIGSICGSGGSNYLNPSLKSRVTLSVDTSKNQFSLILNSVTAADTAVYYCAREGITIFGVVIPRVLDSWGQGAVVTVSS
VL: DIQMTQSPSSLSASVGDTVTITCRASQSISSWLAWYQQKPGKAPNLLIYRASTLQSGVPSRFSGSGSGTDFTLTISSLQSEDFATYFCQQSTSSPFTFGPGTKLDIK
B1 was tested, and the Kd [1] was 534 nM, the Kd [2] was 151 nM and the Kd [3] was 5.66 nM. The Kd [4] was 27.5 nM, the Kd [5] was 81.6 nM and the Kd [6] was 6.59 nM.
